Data reported in article PMC5764468 (PLoS Biology, 2017).

Biological target: T1, Human calmodulin (CaM) (human, UniProt P0DP23 1-149)
T1 construct: also called full-length CaM
Test: SEC-SAXS
Details: both partners purified

- stoichiometry N: 1 P_(MLCK) per CaM
B1: CaM-binding peptide (P_(MLCK)) from the smooth muscle myosin light-chain kinase (peptide)
peptide: Ac-RRKWQKTGHAVRAIGRLSS-NH2
notes: also called myosin light-chain kinase peptide; MLCK peptide
